Source: patent publication US9688764B2, “Methods of treating breast cancer by administering anti-human prolactin receptor (PRLR) antibodies” (REGENERON PHARMACEUTICALS, INC., priority 2013, dated 2017)
Like-named read-outs stand apart in the source and are kept apart here.

B1: H1H6953N-DM1 (conjugate)
VH: EVQLLESGGGLVQPGGTLRLSCAASGFTFSAYAMSWVRQAPGKGLEWVSSINVRAGDTYYADSVKGRFTISRDNSKNTLFLLMNSLRAEDTAAYYCAKARYSSNWGFDFWGQGTLVTVSS
VL: DIVMTQSPDSLTVSLGARTTINCQSSQTILHSSNNHNYLAWYQQKPGLPPKLLIYWSSTRESGVPDRFSGSGSGTDFTLTISSLQAEDVAIYYCQQYSNTPYTFGQGTKLEIN
B2: H1H6958N2-DM1: anti-PRLR antibody H1H6958N2 conjugated to DM1 through an SMCC linker (conjugate)
VH: QVQLVESGGGVVQPGRSLRLSCGASGFTFRNYGMQWVRQGPGKGLEWVTLISFDGNDKYYADSVKGRFTISRDNSKNTLFLQMNSLRTEDTAVYYCARGGDFDYWGQGTLVTVSS
VL: DIQMTQSPSSLSASVGDRVTITCRASQDIRKDLGWYQQKPGKAPKRLIYAASSLHSGVPSRFSGSGSGTEFTLTISSLQPEDFATYYCLQHNSYPMYTFGQGTKLEIK

Legend:
[1] = test system: PC3 cells; experiment: Cell viability (cell kill) assay; assay type: cell-based
Method in brief: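 PC3 and PC3/hPRLR (lipofection-generated, FACS-enriched for PRLR) cells exposed 3 days to anti-PRLR ADCs or free DM1-SMe, 500 nM to 5 pM. Viability by CCK8 OD450, digitonin background subtracted, as % of untreated; IC50 from four-parameter fit of 10-point curves.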

[2] = test system: NCI-N87 cells; experiment: Cell viability (cell kill) assay; assay type: cell-based; conditions: Table 17
Text: PRLR-overexpressing cells, including HEK293, PC3, MCF7 and NCI-N87, were generated to assess the ability of anti-PRLR conjugated antibodies to reduce cell viability. For comparative purposes, PC3 and T47D cells with overexpressed ErbB2 were also generated, as well as an MCF7 cell line over-expressing both hPRLR and hErbB2. Briefly, Lipofectamine® 2000-mediated transfection methodology was utilized to generate HEK293 cells expressing human PRLR (HEK293/hPRLR) or human ErbB2 (HEK293/hErbB2). Lipofectamine LTX with Plus Reagent was used to generate PC3 cells expressing human PRLR (PC3/hPRLR) or human ErbB2 (PC3/hErbB2). Lentiviral-mediated transduction was utilized to generate MCF7 cells expressing human PRLR (MCF7/hPRLR), NCI-N87 cells expressing human PRLR (NCI-N87/hPRLR), T47D cells over-expressing human ErbB2 (T47D/hErbB2), and MCF7 cells expressing both human PRLR and human ErbB2 (MCF7/hPRLR/hErbB2). All lines were selected for at least two weeks in complete growth media plus appropriate selection reagents. Stably expressing populations were enriched for PRLR expression via FACS using the anti PRLR antibody Control I.
Next, the ability of anti-PRLR-DM1 antibody-drug conjugates (i.e., anti-PRLR antibodies conjugated to DM1 via a non-cleavable linker [SMCC]) to reduce cell viability was determined using in vitro cell based assays. Cells were seeded in PDL-coated 96 well plates at 1500 to 10000 cells per well in complete growth media and allowed to grow overnight. For cell viability curves, ADCs or free DM1 (as the methyl disulfide derivative DM1-SMe) were added to the cells at final concentrations ranging from 500 nM to 5 pM and incubated for 3 days. The 293, PC3 and T47D cells were incubated with CCK8 (Dojindo, Rockville, Md.) for the final 1-3 hours and the absorbance at 450 nm (OD450) was determined on a Flexstation3 (Molecular Devices, Sunnyvale, Calif.). MCF7 cells were treated with Hoechst 33342 nuclear stain while being fixed with 4% formaldehyde. Images were acquired on the ImageXpress micro XL (Molecular Devices, Sunnyvale, Calif.) and nuclear counts were determined via Columbus image analysis software (Perkin Elmer, Shelton, Conn.). Background OD450 values (PC3, 293, and T47D) or nuclear counts (MCF7) from digitonin (40 nM) treated cells was subtracted from all wells and viability was expressed as a percentage of the untreated controls. IC50 values were determined from a four-parameter logistic equation over a 10-point response curve (GraphPad Prism).
The potency of anti-PRLR conjugated antibodies compared with a similarly conjugated antibody to the co-expressed ErbB2 cell surface target was also assessed. […]

[3] = Conjugate characterization: protein and linker/payload concentrations, payload loading (UV, MALDI-TOF, SEC-HPLC, RP-HPLC); assay type: physicochemical; conditions: Anti-PRLR-SMCC-DM1 conjugates; Table 9
Method in brief: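 Anti-PRLR antibodies were conjugated to DM1 via an SMCC linker, then purified by size exclusion and sterile filtered. Protein and linker/payload concentrations came from UV and MALDI-TOF, and monomer content and free linker-payload from SEC-HPLC and RP-HPLC. Payload loading was determined by UV and by native-versus-conjugated mass difference, with yields based on protein.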

[4] = test system: SK-BR-3 cells; experiment: Cell viability (cell kill) assay; assay type: cell-based; conditions: Table 16
[5] = test system: T47D cells; experiment: Cell viability (cell kill) assay; assay type: cell-based
Method in brief: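 T47D cells grown overnight, then exposed 3 days to anti-PRLR ADCs (DM1 via non-cleavable SMCC linker, or other maytansinoid toxins) or free DM1-SMe, 500 nM to 5 pM. Viability by CCK8 OD450, digitonin background subtracted, as % of untreated; IC50 from 10-point four-parameter fit. PRL (15 nM) co-incubation tested separately.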

[6] = T47D, Table 12, 3 days, read-out: IC50

| Molecule | % Kill ([1]; Table 15) | IC50 ([1]; Table 15) | % Kill [2] | IC50 [2] | Payload:Antibody Molar Ratio (MS) [3] | Payload:Antibody Molar Ratio (UV) [3] | IC50 [4] | IC50 ([5]; T47D cells (PRLR 12× above background), 3 days, read-out: IC50, cell viability) | % Kill ([5]; T47D, Table 12, 3 days) | IC50 [5, 6] | % Kill ([1]; Table 11, 3 days) | IC50 ([1]; Table 11, 3 days) | % Kill ([5]; T47D, Table 13, + 15 nM PRL) | IC50 ([5]; T47D, Table 13, + 15 nM PRL, read-out: IC50) | % Kill ([5]; T47D, Table 13, without PRL) | IC50 ([5]; T47D, Table 13, without PRL, read-out: IC50) | % Kill ([5]; T47D, Table 19) | IC50 ([5]; T47D, Table 19, read-out: IC50) |
| --- | --- | --- | --- | --- | --- | --- | --- | --- | --- | --- | --- | --- | --- | --- | --- | --- | --- | --- |
| B1 | 80% | 100 nM | 83% | 90 nM | 2.7 | 3.2 | 100 nM | 1.3 nM | 79% | 1.64 nM |  |  |  |  |  |  |  |  |
| B2 |  |  |  |  | 3.4 | 4.0 |  |  | 71% | 1.34 nM | 83% | 150 nM | 100% | 3 nM | 100% | 1 nM | 100% | 2 nM |
